This note sets out measurements from publication doi:10.1101/2025.03.13.643050.

Bounds are passed on as bounds.

In experiment [1] the target is prf.GLFG_(52×12), Nup98-type FG domain comprising 52 perfect 12mer GLFG repeat units. As to the kind of experiment: FG phase partitioning.
The target of experiment [2] is FG repeat domain of 669 residues with non-charged spacers and 36 FSFG motifs. As to the kind of experiment: FG phase partitioning.

As to mCherry, the partition coefficient in experiment [1] was under 0.1. Take “conical CLPs of HIV-1 CA G89V, filled with sinGFP4a (complex)”: the fold more effective entry than wild-type CLPs in experiment [2] came out at 4 fold. On to “conical CLPs of HIV-1 CA A92E, filled with sinGFP4a (complex)”, for which, in experiment [1], the fold reduction of partitioning against wild type is over 10 fold and the partitioning relative to the wild-type level amounted to 5%. EGFP had a partition coefficient in experiment [1] of under 0.1. On the same count and under the same terms, the same measure for “20 nm T1 pentamer-only capsid spheres of HIV-1 CA G60A, G61P, labelled with ~15% CA-EGFP (complex)”: 750. Take “conical CLPs of HIV-1 CA H87E, filled with sinGFP4a (complex)”: the fold reduction of partitioning against wild type in experiment [1] amounted to 15 fold. In experiment [1], “conical CLPs of HIV-1 CA G94D, filled with sinGFP4a (complex)” came in with a partitioning relative to the wild-type level of 5%. With “conical CLPs of HIV-1 CA M96E, filled with sinGFP4a (complex)”, in experiment [1], the fold reduction of partitioning against wild type is over 10 fold.

Turning to “40 nm capsid spheres of HIV-1 CA N21C, A22C, labelled with ~15% CA-EGFP (complex)”, in experiment [1], the partition coefficient came out at 1000. Consider “conical CLPs of HIV-1 CA R132K, filled with sinGFP4a (complex)”, for which, in experiment [1], the reduction in partitioning against wild type worked out at 50%. Consider “conical CLPs of HIV-1 CA I91E, filled with sinGFP4a (complex)”, for which the fold reduction of partitioning against wild type in experiment [1] is over 10 fold. On the same count and under the same terms, the figure for “conical CLPs of HIV-1 CA A88E, filled with sinGFP4a (complex)” is over 10 fold; for “conical CLPs of HIV-1 CA V86E, filled with sinGFP4a (complex)” it is over 10 fold. “conical CLPs (capsid-like particles) of HIV-1 CA wild-type, labelled with ~15% CA-EGFP (complex)”: the partition coefficient in experiment [1] was determined as 1000. As to “conical CLPs of HIV-1 CA H87Q, filled with sinGFP4a (complex)”, the reduction in partitioning against wild type in experiment [1] amounted to 50%.
